Here are results for 72 sequences from the supplement of paper PMC10567573.

± gives the standard deviation.

A short description of this data set: protein stability index of a GFP-peptide fusion (GPS, HEK-293T) (PSI 1-6); higher = more stable.
Setting [1] is: treatment: DMSO, c terminus: a fixed tail appended.
Where [2] appears, read: treatment: MLN4924 1 uM, 8 h, c terminus: a fixed tail appended.
[3] abbreviates: treatment: DMSO, c terminus: native.
The mark [4] stands for this setting: treatment: MLN4924 1 uM, 8 h, c terminus: native.
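Also: 24-mer peptide tiles fused after GFP, lentivirally expressed, FACS-sorted into six equal bins by GFP/DsRed ratio, decoded by Illumina sequencing, PSI is the read-weighted mean bin number.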

Sequence GVSKVGLRKIIDFIYTAKLSLNMD [KLHL13] registered a protein stability index under setting [1] of 2.81 ± 0.75 and a protein stability index under setting [2] of 2.83 ± 0.63.

Regarding ATECEFVGSLPVIVVGRLKVALEP [LPCAT4], the protein stability index by setting is: under setting [1], 2.36 ± 0.56; under setting [2], 2.36 ± 0.59.

For the sequence LCSFLLLLLLQVSSSYAGQFRVIG [MOG], the protein stability index by setting is: under setting [1], 3.39 ± 0.38; under setting [2], 3.29 ± 0.29.

Take HTRSITSCCFDPDSQRVASVSLDR [WDR88]: the protein stability index reads like this: under setting [1], 3.53 ± 0.4; under setting [2], 3.44 ± 0.39.

As for AFWSLVTLGSSFIPGEHFWLLLLT [SPNS1], the protein stability index came to 2.85 ± 1.5 under setting [1] and 2.91 ± 1.1 under setting [2].

In the case of AARALDKNKIPYKGFIPEDLEAFI [FEM1A], the protein stability index under setting [1] was found to be 2.96 ± 0.29 and the protein stability index under setting [2] amounted to 3.42 ± 0.41.

In the case of RENKRMADSLASKVTRLKSLALDI [BET1L], the protein stability index under setting [1] came out at 2.63 ± 0.12 and the protein stability index under setting [2] was determined as 2.7 ± 0.31.

For NSTSVKKKSSRNIFSIVFVFFVCF [P2RY14], the protein stability index under setting [1] came out at 2 ± 0.64.

Take GGDLEEQQHAEGSPEPGTPAAPTP [DNAAF3]: the protein stability index under setting [1] stood at 5.61 ± 0.26 and the protein stability index under setting [2] was 5.54 ± 0.31.

On to AEKETELSLQKEQLQLKIIEIEDE [TRIM29], for which the protein stability index turned out to be 5.42 ± 0.26 under setting [1] and 5.45 ± 0.26 under setting [2].

In the case of NQNRAYVTLAAHFLGLGAPNCLSM [ZBED1], the protein stability index stood at 3.07 ± 0.95 under setting [1] and 3.08 ± 0.59 under setting [2].

In the case of SCEVSEENCERREAFWAEWKDLTL [TCAP], the protein stability index reads like this: under setting [1], 4.16 ± 0.2; under setting [2], 4.21 ± 0.39.

Take FRFAPNHTKELEDKVIELHKSHRG [EPB41L3]: the protein stability index came out at 2.88 ± 0.58 under setting [1] and 3.2 ± 0.68 under setting [2].

WNNVGLLGGRALMNCLPSNRTLWR [LRRC45] returned a protein stability index under setting [1] of 2.23 ± 0.31 and a protein stability index under setting [2] of 2.24 ± 0.45.

As for TSTSSSITSSIPDTERLDDFHLSI [DVL3], the protein stability index by setting is: under setting [1], 3.84 ± 0.27; under setting [2], 3.96 ± 0.23.

For GDESSLLLNAASTVARPVFTEYQA [RHOBTB3], the protein stability index reads like this: under setting [1], 3.57 ± 0.29; under setting [2], 3.52 ± 0.29.

As to GLSHSHDLSMDGLFGTIAYLPPER [RIPK4], the protein stability index is 3.28 ± 0.32 under setting [1] and 3.42 ± 0.25 under setting [2].

As for RLELERKIESLMDEIEFLKKLHEE [PRPH], the protein stability index under setting [1] is 3.32 ± 0.17 and the protein stability index under setting [2] is 3.44 ± 0.31.

KNNDLVVAVNGESVETLDHDSVVE [PDZK1] returned a protein stability index under setting [1] of 5.37 ± 0.27 and a protein stability index under setting [2] of 5.34 ± 0.14.

Consider QILKDTKSITSAMNELQHDLDVVS [TPH1], for which the protein stability index is, setting by setting: under setting [1], 3.82 ± 0.24; under setting [2], 3.97 ± 0.092.

In turn, TIVSCTPVHLVDKLPLPSTLRSHL [RAB40A] registered a protein stability index under setting [1] of 2.32 ± 0.091 and a protein stability index under setting [2] of 2.28 ± 0.15.

For WFQNKRSKFKKLMKQGGAALEGSA [DLX1], the protein stability index was 2.62 ± 0.4 under setting [1] and 3.01 ± 0.36 under setting [2].

Turning to ENQLVRKQDVLGPSTTPPAHSSSN [SASS6], the protein stability index by setting is: under setting [1], 5.19 ± 0.21; under setting [2], 5.29 ± 0.069.

Consider AVLDCLLDFLPKDVKKEKLSPDIM [TENT5D], for which the protein stability index is, setting by setting: under setting [1], 2.99 ± 0.65; under setting [2], 2.63 ± 0.52.

In the case of KFLAFSGPHPKSKIENGYPLHAPE [CDC14A], the protein stability index reads like this: under setting [1], 3.23 ± 0.15; under setting [2], 3.16 ± 0.29.

For LLFKLVAPVTFRHHRYDDLVRTLY [CPN1], the protein stability index is 2.65 ± 0.63 under setting [1] and 2.83 ± 0.56 under setting [2].

Turning to LQRQAEQNPTASYYNVVLLRYQFS [FCHO1], the protein stability index is, setting by setting: under setting [1], 2.23 ± 0.4; under setting [2], 2.28 ± 0.34.

For RTSSGTSREKTACAINKVGVSFST [FAM98B], the protein stability index is, setting by setting: under setting [1], 3.29 ± 0.29; under setting [2], 3.87 ± 0.46.

HFQEAIDFIDCVREKGGKVLVHCE [DUSP5]: the protein stability index reads like this: under setting [1], 2.76 ± 0.39; under setting [2], 2.76 ± 0.53.

Take ACGSSSYVASIVDGGESRSEKGDS [RBMY1A1]: the protein stability index reads like this: under setting [1], 5.22 ± 0.31; under setting [2], 5.16 ± 0.35.

With DEYQYSFWDLFRSKDNMRTRIMIG [SLC2A12], the protein stability index was determined as 1.85 ± 0.38 under setting [1] and 2.14 ± 0.38 under setting [2].

On to TMGLRHLPVVNAVGEIVGIITRHN [CLCN6], for which the protein stability index reads like this: under setting [1], 2.47 ± 0.19; under setting [2], 2.41 ± 0.12.

In turn, AKAELPKYKSFNRTAMPYGGYEKA [MYOZ1] showed a protein stability index under setting [1] of 3.22 ± 0.23 and a protein stability index under setting [2] of 3.41 ± 0.24.

For the sequence APPQGSCGDELPWTLQRRLTRLRT [PLEKHN1], the protein stability index under setting [1] stood at 3.33 ± 0.26 and the protein stability index under setting [2] came out at 3.51 ± 0.44.

HECVNMEESYYCRCHRGYTLDPNG [MATN2]: the protein stability index was determined as 3.44 ± 0.67 under setting [1] and 3.36 ± 0.52 under setting [2].

The sequence GGGLLKYSNLLVRDFRPTDQEEIK [TENT5C] returned a protein stability index under setting [1] of 3.79 ± 0.32 and a protein stability index under setting [2] of 3.75 ± 0.6.

EDPFYWVSPGVLVLLAVLPVLLLQ [MOG] displayed a protein stability index under setting [1] of 2.52 ± 0.41 and a protein stability index under setting [2] of 2.38 ± 0.69.

As for CVTPNGRPISGTAVAHKTPRCPGS [SMOC2], the protein stability index reads like this: under setting [1], 2.98 ± 0.67; under setting [2], 3.89 ± 0.34.

AGPDSWGSDAEQSTSGQPYPTSDQ [LCOR] showed a protein stability index under setting [1] of 5.48 ± 0.23 and a protein stability index under setting [2] of 5.4 ± 0.13.

For the sequence TASLLLCPGGLDHKLNLRGKAWG [TIAF1], the protein stability index was found to be 2.98 ± 0.22 under setting [3] and 2.59 ± 0.67 under setting [4].

Turning to KFSQNSHLIKHRRTHTGEQPYTCS [ZNF75A], the protein stability index was determined as 2.93 ± 0.14 under setting [1] and 3 ± 0.34 under setting [2].

RLKCRSFKWYLENVYPEMRVYNNT [GALNT9] showed a protein stability index under setting [1] of 2.42 ± 0.17 and a protein stability index under setting [2] of 2.19 ± 0.2.

Take EPSLKATMGLAGRARVKEKFSPEA [ALG2]: the protein stability index by setting is: under setting [1], 4.6 ± 0.34; under setting [2], 4.94 ± 0.19.

As for VVIRDIDERAMELLIDFAYTSQIT [KLHL20], the protein stability index amounted to 3.19 ± 0.55 under setting [1] and 2.67 ± 0.57 under setting [2].

Take DAAIHGFRETEKSRWSEASRAILQ [ALKBH7]: the protein stability index was 3.8 ± 0.51 under setting [1] and 3.83 ± 0.66 under setting [2].

GDRLQFNQLSQAELDELASKAPVL [EFHC1] registered a protein stability index under setting [1] of 4.25 ± 0.42 and a protein stability index under setting [2] of 4.72 ± 0.36.

With KIAQNLDFVNLMAYDFHGSWEKVT [CHIT1], the protein stability index under setting [1] is 2.42 ± 0.35 and the protein stability index under setting [2] turned out to be 2.18 ± 0.39.

In the case of LLPDQARGEVPWSPELGRPHDRSQ [ZNF263], the protein stability index under setting [1] was determined as 4.58 ± 0.17 and the protein stability index under setting [2] worked out at 4.86 ± 0.091.

Consider PVLEDNYMYLVIEELTREAVAVDV [HAGHL], for which the protein stability index reads like this: under setting [1], 2.34 ± 0.57; under setting [2], 2.47 ± 0.17.

As for CESCVDLLFVRGAGNCPECGTPLR [MNAT1], the protein stability index came to 4.27 ± 0.32 under setting [1] and 4.51 ± 0.17 under setting [2].

With GQAEEELIKAKSQARLEEQQRLAH [LRRC45], the protein stability index by setting is: under setting [1], 5.13 ± 0.26; under setting [2], 4.91 ± 0.38.

LMDYIGINLATMNSCINPIALYFV [EDNRA]: the protein stability index under setting [2] came out at 3.08 ± 0.24.

As to SVHNDLWESWFVPDPAGIFKLNHH [GLT8D2], the protein stability index under setting [1] amounted to 2.38 ± 0.18 and the protein stability index under setting [2] was 2.53 ± 0.22.

Regarding DSSTSPKGKQPTSAENSVAKKEDK [NANOGP8], the protein stability index reads like this: under setting [1], 5.57 ± 0.36; under setting [2], 5.58 ± 0.19.

Take DVLLTLKHTVKEHECKLTQEILEL [IQUB]: the protein stability index under setting [1] came out at 2.12 ± 0.2 and the protein stability index under setting [2] turned out to be 1.96 ± 0.47.

Consider VENECYQVFLDRINRADYCPECYP [TOR1AIP2], for which the protein stability index reads like this: under setting [1], 2.43 ± 0.42; under setting [2], 2.62 ± 0.27.

LVVDYIDEGRLVLEFSLLSYAFGK [SOAT1]: the protein stability index by setting is: under setting [1], 3.29 ± 0.8; under setting [2], 3.17 ± 0.48.

On to RLCGRQVSRGPGVNVGTTALWKHL [ZBED2], for which the protein stability index amounted to 2.29 ± 0.36 under setting [1] and 2.17 ± 0.31 under setting [2].

PLMPGMPPVMPGMPPGLHHQRKYT [ZNF207]: the protein stability index runs as follows: under setting [1], 3.91 ± 0.39; under setting [2], 4.11 ± 0.18.

For ELDIPQSVQQNGSIYIHVYFTKSG [CLPTM1], the protein stability index reads like this: under setting [1], 2.3 ± 0.57; under setting [2], 2.85 ± 0.67.

As to GRIIAVFKPKNEEPYGHLNPKWTK [PI4K2A], the protein stability index reads like this: under setting [1], 2.09 ± 0.24; under setting [2], 2.2 ± 0.44.

With NTRGTGSSSSGVLMVGPNFRVGKK [CSNK1G3], the protein stability index reads like this: under setting [1], 4.48 ± 0.2; under setting [2], 4.51 ± 0.18.

Consider LLRPPVAAFVRAQADLLAHLVPEP [DNAAF3], for which the protein stability index turned out to be 2.23 ± 0.31 under setting [1] and 2.33 ± 0.31 under setting [2].

For the sequence IYRKYRKLIESELSYFVIVYSVM [FBXO39], the protein stability index by setting is: under setting [3], 2.87 ± 0.62; under setting [4], 2.89 ± 0.44.

KMETMYPFIVTLEGNALQGPILQK [ZNF449]: the protein stability index is, setting by setting: under setting [1], 2.53 ± 0.24; under setting [2], 2.48 ± 0.33.

LDGAGLMGFVPHNGSLYGQASSER [ADAMTSL2] had a protein stability index under setting [1] of 4.32 ± 0.67 and a protein stability index under setting [2] of 3.58 ± 0.95.

For the sequence AQQLEEEGPMEEEEAQPMAAPEGK [EID1], the protein stability index reads like this: under setting [1], 5.68 ± 0.29; under setting [2], 5.53 ± 0.35.

The sequence GQDTFCQGKADGLYPNPRERSSFY [CHIT1] showed a protein stability index under setting [1] of 3.71 ± 0.28 and a protein stability index under setting [2] of 3.57 ± 0.35.

For the sequence QPLEASNPALEGLTQPLQGGTPHC [DNAAF3], the protein stability index under setting [1] came to 5.11 ± 0.15 and the protein stability index under setting [2] turned out to be 5.09 ± 0.35.

On to MLTRRVLQLETVLEGVVSQIDAVG [PKD2L1], for which the protein stability index is 2.29 ± 0.49 under setting [1] and 2.46 ± 0.51 under setting [2].

On to HGPQLPTGIEGNWGRLLEQVGTMA [ZBED2], for which the protein stability index is, setting by setting: under setting [1], 3 ± 0.35; under setting [2], 3.08 ± 0.24.

Turning to PDVRPPLGRGLVGGQEEASQEAGL [SEPHS2], the protein stability index came out at 5.27 ± 0.14 under setting [1] and 5.31 ± 0.18 under setting [2].
